From the supplement of paper PMC10567573

B1: NCF4 (parent)
chain: FGPDSKSSALACTLPTLPAKVYVG

Variants of: B1
Assay: protein stability index of a GFP-peptide fusion (GPS, HEK-293T) (PSI 1-6); higher = more stable
Details: c terminus: a fixed tail appended
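Further: lentivirally expressed fusions sorted by FACS into six bins by GFP to DsRed ratio, PSI derived from sequencing read proportions per bin multiplied by bin number.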

In order of falling protein stability index:
1. EGPDSKSSALACTLPTLPAKVYVG  4.28
2. HGPDSKSSALACTLPTLPAKVYVG  3.84
3. NGPDSKSSALACTLPTLPAKVYVG  3.69
4. SGPDSKSSALACTLPTLPAKVYVG  3.64
5. GGPDSKSSALACTLPTLPAKVYVG  3.58
6. DGPDSKSSALACTLPTLPAKVYVG  3.56
7. FGPDQKSSALACTLPTLPAKVYVG  3.47
8. TGPDSKSSALACTLPTLPAKVYVG  3.47
9. FEPDSKSSALACTLPTLPAKVYVG  3.43
10. FVPDSKSSALACTLPTLPAKVYVG  3.38
11. PGPDSKSSALACTLPTLPAKVYVG  3.32
12. FGPDSDSSALACTLPTLPAKVYVG  3.17
13. KGPDSKSSALACTLPTLPAKVYVG  3.17
14. FGPDDKSSALACTLPTLPAKVYVG  3.16
15. FGPDEKSSALACTLPTLPAKVYVG  3.13
16. AGPDSKSSALACTLPTLPAKVYVG  3.11
17. FDPDSKSSALACTLPTLPAKVYVG  3.1
18. FGQDSKSSALACTLPTLPAKVYVG  3.09
19. FFPDSKSSALACTLPTLPAKVYVG  3.06
20. FGEDSKSSALACTLPTLPAKVYVG  3.02
21. QGPDSKSSALACTLPTLPAKVYVG  3.02
22. FKPDSKSSALACTLPTLPAKVYVG  3.02
23. LGPDSKSSALACTLPTLPAKVYVG  2.99
24. VGPDSKSSALACTLPTLPAKVYVG  2.92
25. FGPDPKSSALACTLPTLPAKVYVG  2.75
26. YGPDSKSSALACTLPTLPAKVYVG  2.7
27. MGPDSKSSALACTLPTLPAKVYVG  2.68
28. CGPDSKSSALACTLPTLPAKVYVG  2.67
29. FGPDNKSSALACTLPTLPAKVYVG  2.65
30. IGPDSKSSALACTLPTLPAKVYVG  2.64
31. WGPDSKSSALACTLPTLPAKVYVG  2.63
32. FRPDSKSSALACTLPTLPAKVYVG  2.6
33. FPPDSKSSALACTLPTLPAKVYVG  2.59
34. FAPDSKSSALACTLPTLPAKVYVG  2.57
35. FGKDSKSSALACTLPTLPAKVYVG  2.56
36. FGPDSESSALACTLPTLPAKVYVG  2.54
37. RGPDSKSSALACTLPTLPAKVYVG  2.54
38. FGPDSGSSALACTLPTLPAKVYVG  2.48
39. FGHDSKSSALACTLPTLPAKVYVG  2.46
40. FGPDVKSSALACTLPTLPAKVYVG  2.46
41. FGADSKSSALACTLPTLPAKVYVG  2.45
42. FGPDIKSSALACTLPTLPAKVYVG  2.41
43. FGPDHKSSALACTLPTLPAKVYVG  2.36
44. FGRDSKSSALACTLPTLPAKVYVG  2.35
45. FGSDSKSSALACTLPTLPAKVYVG  2.35
46. FGPDAKSSALACTLPTLPAKVYVG  2.34
47. FSPDSKSSALACTLPTLPAKVYVG  2.34
48. FGPDTKSSALACTLPTLPAKVYVG  2.32
49. FGPDKKSSALACTLPTLPAKVYVG  2.28
50. FGPQSKSSALACTLPTLPAKVYVG  2.26
51. FGTDSKSSALACTLPTLPAKVYVG  2.25
52. FGPPSKSSALACTLPTLPAKVYVG  2.23
53. FYPDSKSSALACTLPTLPAKVYVG  2.22
54. FGNDSKSSALACTLPTLPAKVYVG  2.21
55. FGPDRKSSALACTLPTLPAKVYVG  2.2
56. FGPMSKSSALACTLPTLPAKVYVG  2.19
57. FGDDSKSSALACTLPTLPAKVYVG  2.19
58. FGLDSKSSALACTLPTLPAKVYVG  2.17
59. FGPISKSSALACTLPTLPAKVYVG  2.15
60. FGPLSKSSALACTLPTLPAKVYVG  2.15
61. FGPTSKSSALACTLPTLPAKVYVG  2.14
62. FGIDSKSSALACTLPTLPAKVYVG  2.13
63. FGPDLKSSALACTLPTLPAKVYVG  2.12
64. FGPCSKSSALACTLPTLPAKVYVG  2.11
65. FGPGSKSSALACTLPTLPAKVYVG  2.1
66. FGGDSKSSALACTLPTLPAKVYVG  2.07
67. FTPDSKSSALACTLPTLPAKVYVG  2.06
68. FLPDSKSSALACTLPTLPAKVYVG  2.06
69. FGPESKSSALACTLPTLPAKVYVG  2.05
70. FGPSSKSSALACTLPTLPAKVYVG  2.04
71. FGCDSKSSALACTLPTLPAKVYVG  2.04
72. FGPDSCSSALACTLPTLPAKVYVG  2.02
73. FGMDSKSSALACTLPTLPAKVYVG  2.01
74. FIPDSKSSALACTLPTLPAKVYVG  1.96
75. FGPDSASSALACTLPTLPAKVYVG  1.95
76. FGPDMKSSALACTLPTLPAKVYVG  1.89
77. FGVDSKSSALACTLPTLPAKVYVG  1.86
78. FGPNSKSSALACTLPTLPAKVYVG  1.84
79. FMPDSKSSALACTLPTLPAKVYVG  1.84
80. FGPASKSSALACTLPTLPAKVYVG  1.82
81. FGPDCKSSALACTLPTLPAKVYVG  1.8
82. FNPDSKSSALACTLPTLPAKVYVG  1.77
83. FGPVSKSSALACTLPTLPAKVYVG  1.75
84. FGYDSKSSALACTLPTLPAKVYVG  1.73
85. FGFDSKSSALACTLPTLPAKVYVG  1.72
86. FWPDSKSSALACTLPTLPAKVYVG  1.65
87. FHPDSKSSALACTLPTLPAKVYVG  1.61
88. FGPDSFSSALACTLPTLPAKVYVG  1.53
89. FGPDYKSSALACTLPTLPAKVYVG  1.51
90. FQPDSKSSALACTLPTLPAKVYVG  1.49
91. FGWDSKSSALACTLPTLPAKVYVG  1.46
92. FGPHSKSSALACTLPTLPAKVYVG  1.18
93. FGPWSKSSALACTLPTLPAKVYVG  1.18
94. FCPDSKSSALACTLPTLPAKVYVG  1.12
